From the supplement of paper PMC10126150
± gives the standard deviation of the averaged measurements.

System: ATP
Experiment: switch fluorescence ratio, 500 uM ATP over buffer (Cy3 cluster intensity, sum of 5 cycles each) (fold (ratio)); higher = stronger signal-on switching upon ATP binding; sequences stand for … in TCGTCGGCAGCGTCAGATGTGTATAAGAGACAGTTTTTTTTTTTTTTTTTTTTTTTTT…TC
Details: aptamer strand: ATP DNA aptamer (quencher-CACCTGGGGGAGTATTGCGGAGGAAGG + anchor), 100 nM annealed; ATP concentration: 500 uM
Method in brief: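 After annealing to 100 nM quencher-labelled ATP aptamer, Cy3-labelled switching-strand clusters on a modified Illumina MiSeq flow-cell were imaged in selection buffer. A second image followed after 15 min with 500 uM ATP at 22 °C, and five such buffer/ATP cycles were done, each separated by NaOH stripping and re-annealing. The fluorescence ratio, averaged per switch-domain sequence, is summed target-cycle over summed buffer-cycle Cy3 intensity per cluster, with clusters outside 100-1000 RFU excluded.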
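Further: ATP exposure 15 min at 22 °C before imaging.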

Sequence | switch fluorescence ratio
GGATGAGTAT | 1.02 ± 0.058
GACGGGTTTC | 0.991 ± 0.017
GGGGGAGGCT | 0.987 ± 0.034
TTGGGTGAGT | 1.01 ± 0.014
TGACTGTTTG | 0.984 ± 0.04
TGGACCGGTT | 1.034 ± 0.0016
AAATTCTTCT | 1.04 ± 0.04
GATTTTTTAT | 0.999 ± 0.058
GGGTTAGGAA | 0.991 ± 0.022
AGTTGTGGTA | 1.003 ± 0.01
TTTTGGATCG | 1 ± 0.012
CACAGCGTCG | 1 ± 0.017
GAATGTGCAT | 1.05 ± 0.047
AAATAGGTGG | 0.996 ± 0.024
GGGGTTCGGC | 1.058 ± 0.0023
TTTACGAGGG | 0.977 ± 0.015
GAAGTAGGGG | 0.977 ± 0.033
GCCGCCAGGG | 1.26 ± 0.068
TGTTTAAATA | 1.033 ± 0.0035
GGAGTGAGGT | 0.999 ± 0.03
TTTTTTTGTA | 1.01 ± 0.042
TTTTGGGCCA | 1.04 ± 0.018
TTAGGGGAAA | 1.03 ± 0.066
TTTTGGTAAT | 1.01 ± 0.014
AGGGTTGGAG | 1.003 ± 0.0042

Sequence | switch fluorescence ratio
ATATATGCAG | 0.986 ± 0.018
AAACGCAAAG | 1.27 ± 0.3
GGGTCTTCGC | 0.991 ± 0.024
CGTCGGGGCG | 1.02 ± 0.036
TGAGGTGAAA | 0.976 ± 0.03
TATTAATGAT | 1.007 ± 0.01
TTTGTGCTC | 1.13 ± 0.15
GTTCTGTTGG | 0.995 ± 0.023
TTTAATGAGC | 0.995 ± 0.014
CCGTCATCTG | 1.04 ± 0.029
ATGAGTAAGG | 0.991 ± 0.013
TTAAAAAGGG | 0.995 ± 0.029
AGGGGATGGC | 0.946 ± 0.017
CTGGCTACGG | 1.01 ± 0.032
GAGGTCGTGA | 0.975 ± 0.019
ATGGTCGGAT | 0.9804 ± 0.0098
AAAGGAGGGC | 0.968 ± 0.067
ATAATATGTG | 0.997 ± 0.029
TTCATATTAT | 0.9472 ± 0.0062
TTTCCATTCT | 1 ± 0.015
AATGCCAGGG | 1.02 ± 0.026
TCCAGGACGA | 1.05 ± 0.023
CTCGCTAGGA | 1.05 ± 0.019
GCTCTATGAC | 1.08 ± 0.044
GAGAATTGGG | 1.02 ± 0.061

Sequence | switch fluorescence ratio
ATTAGGGTAT | 1.0078 ± 0.00026
TCGGGATAGG | 1.05 ± 0.018
TTTTGATTAT | 0.978 ± 0.034
TTGAGCAGCT | 1.08 ± 0.085
TGACGGTTTA | 1.023 ± 0.0016
TTTGAAAATA | 0.962 ± 0.018
GTTGGGGCGA | 1.02 ± 0.076
CAATAGGCAG | 0.9824 ± 0.0053
TTAAGACGGG | 1.002 ± 0.0017
GGGAGAAAGT | 0.9995 ± 0.0034
TAATAGGCCT | 1.026 ± 0.01
TGTGCATCT | 1.01 ± 0.015
CAGTGCGTTT | 1.01 ± 0.013
AGTGTAGCTT | 1.07 ± 0.19
AAAGGTGTGT | 1.04 ± 0.073
CGATCTAGTA | 0.97 ± 0.015
AAGATAGGGG | 1 ± 0.023
TCGTAGCTGT | 1.18 ± 0.052
GGAGAAGGGA | 0.973 ± 0.062
ATTAATAGTT | 0.997 ± 0.053
GCTTTATTTT | 1.09 ± 0.19
TAGAATTTGG | 1.01 ± 0.06
GGGTGTAGCG | 0.965 ± 0.026
TTCTGGCAAT | 2.97 ± 0.14
GAGGGTAATA | 1.01 ± 0.017

Sequence | switch fluorescence ratio
TTATGTGTCG | 0.983 ± 0.033
TCTTAGTTCA | 0.9825 ± 0.0062
ATAATTACTT | 1.01 ± 0.018
TGGGGATGGT | 0.991 ± 0.062
CGGTCTTCAT | 0.9903 ± 0.00043
GGAATAGAGT | 1.02 ± 0.021
TCGGATAAGA | 0.995 ± 0.048
AATTTTTACT | 1.05 ± 0.1
ACTATTATTT | 0.9887 ± 0.0022
ATGTATCAGG | 1.03 ± 0.022
CGATGTTGGG | 0.99 ± 0.018
CGTGGCGGGA | 0.923 ± 0.09
GATAGGGCAA | 1.08 ± 0.075
AAGATGGCAG | 0.986 ± 0.029
TGAATGGGGA | 1.01 ± 0.029
ACGAACGGGG | 1.27 ± 0.1
AAATACGCTC | 1.25 ± 0.2
TAACTGTGGA | 1.08 ± 0.085
ATCAAGCCAA | 1.005 ± 0.0018
AAAGGGGTGC | 1.05 ± 0.048
AGTATCTTAC | 1.03 ± 0.025
TTAAAGATGG | 1 ± 0.045
AGTTTTAGAT | 1 ± 0.044
AAAGAGGGGG | 1.03 ± 0.049
TGTGTTTCGG | 0.9799 ± 0.0082

Sequence | switch fluorescence ratio
AGCGTCTTGC | 1.01 ± 0.059
GCTGTGATA | 0.976 ± 0.019
TAATTAGGGG | 1.06 ± 0.083
GGTCACGTAT | 1.05 ± 0.014
AGGCGTTGGT | 1.05 ± 0.11
CGCATAGCTT | 1.12 ± 0.021
CGCTTAAAGT | 1.03 ± 0.05
AGTGCCTGCG | 1.02 ± 0.032
TCCGATGCGT | 2.97 ± 2.8
GAAGAACGGG | 1.006 ± 0.0036
GCGGTGTTTT | 1.03 ± 0.05
CCGTTGTGCG | 1.02 ± 0.027
CATCGTGACT | 0.994 ± 0.028
GGGGATATTC | 1 ± 0.023
GAGGGGGTGG | 1 ± 0.064
GGGGTACTAG | 0.9981 ± 0.0071
TCATTCTAGG | 1.009 ± 0.0031
GATATATATC | 0.9903 ± 0.0054
TGCGGGACT | 2.28 ± 1.8
ATTAAATAAC | 1.02 ± 0.02
TAGAGGGCTG | 1.01 ± 0.016
TTTAGTGAGG | 0.974 ± 0.03
GATCTAGGAG | 1.02 ± 0.017
GGGGGAAGGG | 0.984 ± 0.027
GTGGTGATGT | 1.02 ± 0.012

Sequence | switch fluorescence ratio
TAGGAGGGGA | 1.01 ± 0.029
TTTCGAGTTT | 0.983 ± 0.012
TGGTAATGGG | 1.01 ± 0.049
TTTGAGGGTA | 1.03 ± 0.1
TAAGCGGGGA | 1.027 ± 0.0054
TAAGGCGGGG | 0.993 ± 0.042
TTTGGTTTGT | 1.1 ± 0.19
ACAAGGAGGT | 0.983 ± 0.005
GAGTGAATTT | 1.0074 ± 0.00014
GATTCAGGTA | 1.01 ± 0.026
TTGTTTGGAT | 1.01 ± 0.05
ACTTATTGGG | 1.03 ± 0.011
CTTAGGGAGT | 1.006 ± 0.0028
CGGTTCGGTG | 0.981 ± 0.014
ACAGGATCCG | 1.01 ± 0.00021
GGGTGCGTTC | 0.964 ± 0.027
ACTCAGCTGG | 1.074 ± 0.0069
TAAGCTATTT | 1.02 ± 0.025
GTGCTAGTCT | 0.979 ± 0.067
CAGTGACTTT | 1.022 ± 0.0014
CTTCCGTTTT | 1.28 ± 0.042
AAGGAAGAAA | 0.974 ± 0.068
GGACGCCTTT | 0.9753 ± 0.0077
AGAAATGACG | 1 ± 0.037
GGTTTGGGCA | 1.02 ± 0.013

Sequence | switch fluorescence ratio
TGGGGGAGGC | 0.973 ± 0.042
TCAGCGTGTG | 1.0181 ± 0.00046
TATGCCTTCG | 1.09 ± 0.05
GGGGAGTTGG | 0.969 ± 0.025
TTTACCATTT | 1.024 ± 0.0018
ATAGTGTTGG | 0.986 ± 0.029
AAACCGGGGG | 1.1 ± 0.085
GAGGTTATTG | 0.99 ± 0.025
GAATTGTATT | 0.993 ± 0.06
GCACATCTGT | 0.99 ± 0.056
AGCAGGGGGT | 1.05 ± 0.044
ACATCGACTG | 1.02 ± 0.048
ATCTGAGTTA | 1.03 ± 0.058
CACTGGAAAA | 1.04 ± 0.036
ACGAGGTTTT | 1.03 ± 0.042
ATATGTGTGA | 0.968 ± 0.029
GAGTGTCGCC | 0.99 ± 0.021
TGGGGGGCTG | 0.983 ± 0.048
GGTGTGCTGT | 0.957 ± 0.031
GGGGGGTTTT | 1.01 ± 0.059
GGGTGATTAA | 0.994 ± 0.017
CGTTAAGCTT | 1.03 ± 0.014
TGGGTTTGGT | 1.01 ± 0.014
GGCTGTGAAC | 1.02 ± 0.023
TGATCAAGGA | 0.997 ± 0.041

Sequence | switch fluorescence ratio
GTTGTGCCTG | 1.01 ± 0.041
CGGGTGGCCT | 1 ± 0.02
TTGTGATCGG | 0.978 ± 0.03
GATGTTTAAT | 0.991 ± 0.029
GGGTTGGGTT | 1.05 ± 0.18
TAGGGTATGG | 0.9792 ± 0.0083
TTCGTTGAAT | 0.97 ± 0.024
ACCGGTTACG | 1.027 ± 0.0055
GATCGGGGTG | 0.965 ± 0.021
TCTTGGGTTT | 0.992 ± 0.012
TTCTAATCCG | 1.036 ± 0.0091
CTGATGTCGT | 1.01 ± 0.033
AGATTCAATA | 0.991 ± 0.016
ATCGGACGCT | 1.06 ± 0.023
TGGGAAATTT | 1.1 ± 0.12
TCCACACGCT | 2.14 ± 0.25
ACGTGTCTTG | 1.01 ± 0.013
CTGAGTATGT | 0.988 ± 0.015
TTAGTACTGC | 1.03 ± 0.02
TTAGTTGGTC | 0.996 ± 0.029
AAGCCGTCGG | 1.02 ± 0.013
GTAATTTAGG | 0.996 ± 0.042
TATTGCGATT | 0.994 ± 0.018
GGGGGAAAGT | 0.992 ± 0.026
GGGGCTATCG | 1.16 ± 0.24
